The results in this text go back to patent US20180282719A1 (published 2018).

For assay [1], the target named is T1, recombinant soluble human IL-6 receptor (SR344) (human, UniProt P08887 20-344, biotinylated (sites not given) where immobilized via streptavidin or used in phage ELISA).
T1 construct: also called soluble IL-6 receptor; membrane-type IL-6 receptor (when biotinylated and immobilized on the chip)
T1 sequence (looked up): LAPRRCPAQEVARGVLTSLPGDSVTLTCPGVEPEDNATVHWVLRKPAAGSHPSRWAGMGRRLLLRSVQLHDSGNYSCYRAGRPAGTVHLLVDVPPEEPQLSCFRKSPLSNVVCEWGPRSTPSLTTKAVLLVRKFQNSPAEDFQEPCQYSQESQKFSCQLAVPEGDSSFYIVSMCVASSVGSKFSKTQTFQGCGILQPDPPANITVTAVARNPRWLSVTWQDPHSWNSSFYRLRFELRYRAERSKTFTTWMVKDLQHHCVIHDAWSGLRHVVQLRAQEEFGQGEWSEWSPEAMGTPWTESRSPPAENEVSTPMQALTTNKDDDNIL
The assay can be described thus: SPR Biacore T100, biotinylated SR344 on streptavidin chip (model of membrane-type IL-6 receptor), antibody as analyte, bound at pH 7.4, dissociation at pH 7.4, 37 C. (Surface plasmon resonance follows binding to a sensor surface in real time, without labels.)

The target in assay [2] is T1, recombinant soluble human IL-6 receptor …. Put plainly: SPR Biacore T100, biotinylated SR344 on streptavidin chip (model of membrane-type IL-6 receptor), antibody 0.25 ug/mL as analyte, 37 C. Here is the method:
(§1) Binding to the membrane-type IL-6 receptor was evaluated by evaluating binding to the IL-6 receptor immobilized on a sensor chip. SR344 was biotinylated in accordance with a method known among persons with ordinary skill in the art, and the biotinylated SR344 was immobilized on the sensor chip via streptavidin using the affinity between streptavidin and biotin. All the measurements were carried out at 37° C. The mobile phase buffer was 10 mM MES (pH 5.8), 150 mM NaCl and 0.05% TWEEN® 20 (polyoxyethelene sorbitan monolaurate).
(§2) The pH-dependently-binding clones were injected under the condition of pH 7.4 to allow them to bind to SR344, and then, the pH-dependent dissociation of each clone at the pH of the mobile phase, pH 5.8, was observed. The results are shown in FIG. 21 (results for Fv1-M71, Fv1-M73, Fv3-M71, and Fv3-M73 are shown in FIG. 21, while results for other clones are shown in FIGS. 17 and 19). Analyses were carried out in the same manner as in Example 10 and the pH dependencies of the dissociation rate constants of all of the eleven types of clones are shown in Table 12.

For assay [3] the target is unchanged. The assay can be described thus: SPR Biacore T100, biotinylated SR344 on streptavidin chip (model of membrane IL-6 receptor), antibody 0.5 ug/mL as analyte, 37 C. Here is the method:
The binding to membrane IL-6 receptor was evaluated by evaluating the binding to the IL-6 receptor immobilized onto a sensor chip. SR344 was biotinylated according to a method known to persons skilled in the art, and the biotinylated SR344 was immobilized on the sensor chip via streptavidin by utilizing the affinity between streptavidin and biotin. All the measurements were carried out at 37° C., and the mobile phase buffer contained 10 mM MES (pH 5.8), 150 mM NaCl and 0.05% TWEEN® 20 (polyoxyethelene sorbitan monolaurate). The pH-dependent binding clones were injected therein under the condition of pH 7.4 and allowed to bind to SR344 (injection sample buffer: 10 mM MES (pH 7.4), 150 mM NaCl, 0.05% TWEEN® 20 (polyoxyethelene sorbitan monolaurate)), and the pH-dependent dissociation of each clone at the mobile phase pH of 5.8 was observed (FIG. 10).
The dissociation rate […]) at pH 5.8 was calculated using Biacore T100™ Evaluation Software (GE Healthcare) by fitting only the dissociation phase at pH 5.8, where 0.5 μg/mL of the sample was bound in 10 mM MES (pH 7.4), 150 mM NaCl, and 0.05% TWEEN® 20 (polyoxyethelene sorbitan monolaurate), and dissociated in 10 mM MES (pH 5.8), 150 mM NaCl, and 0.05% TWEEN® 20 (polyoxyethelene sorbitan monolaurate). Similarly, the dissociation rate (kd(1/s)) at pH 7.4 was calculated using Biacore T100™ Evaluation Software (GE Healthcare) by fitting only the dissociation phase at pH 7.4, where 0.5 μg/mL of the sample was bound in 10 mM MES (pH 7.4), 150 mM NaCl, and 0.05% TWEEN® 20 (polyoxyethelene sorbitan monolaurate), and dissociated in 10 mM MES (pH 7.4), 150 mM NaCl, and 0.05% TWEEN® 20 (polyoxyethelene sorbitan monolaurate).

Assay [4] shares this target. Put plainly: SPR Biacore T100, biotinylated SR344 on streptavidin chip (model of membrane-type IL-6 receptor), antibody 0.25 ug/mL as analyte, bound at pH 7.4, dissociation at pH 5.8, 37 C. Here is the method:
as §1, §2

B1: H3pI/L73 (antibody, IgG1, V domains shown)
VH: QVQLQESGPGLVKPSETLSLTCAVSGHSISHDHAHSWVRQPPGEGLEWIGYISYSGITNYNPSLKGRVTISRDTSKNQFSLKLSSVTAADTAAYYCARSLARTTAMDYWGEGTLVTVSS
VL: DIQMTQSPSSLSASVGDSVTITCQASQHISSHLNWYQQKPGKAPELLIYYGSHLHSGVPSRFSGSGSGTDFTFTISSLEAEDAATYYCGQGNRLPYTFGQGTKVEIE
notes: tested as IgG1; also called H3pI/L73-IgG1; H3pl/L73
The koff is a measure of how fast the partners let go of each other. On to B1, for which the koff is 0.00026 s⁻¹ in assay [1] and 0.00067 s⁻¹ in assay [4]. In assay [2], the “kd (pH 5.8)/kd (pH 7.4)” value came to 2.59. The “kd ratio pH 5.8/pH 7.4” value in assay [3] came to 11.

B2: H170/L82 (antibody, IgG1, V domains shown)
VH: QVQLQESGPGLVKPSETLSLTCAVSGHSISHHHAHSWVRQPPGEGLEWIGYISYSGITHYNPHLKGRVTISRDTSKNQFSLKLSSVTAADTAAYYCARVLARITAMDHWGEGTLVTVSS
VL: DIQMTQSPSSLSASVGDSVTITCQASQDISSHLNWYQQKPGKAPELLIYYGSHLHSGVPSRFSGSGSGTDFTFTISSLEAEDAATYYCGQGNRLPYTFGQGTKVEIE
notes: expressed and purified as IgG (IgG1); also called H170/L82-IgG1
With B2, in assay [3], the “kd ratio pH 5.8/pH 7.4” value was 1.9.

B3: Fv4-IgG1 (antibody)
heavy: not shown
light: DIQMTQSPSSLSASVGDSVTITCQASTDISSHLNWYQQKPGKAPELLIYYGSHLLSGVPSRFSGSGSGTDFTFTISSLEAEDAATYYCGQGNRLPYTFGQGTKVEIERTVAAPSVFIFPPSDEQLKSGTASVVCLLNNFYPREAKVQWKVDNALQSGNSQESVTEQDSKDSTYSLSSTLTLSKADYEKHKVYACEVTHQGLSSPVTKSFNRGEC
notes: VH3-IgG1 / VL3-CK
Turning to B3, the koff came out at 0.00047 s⁻¹ in assay [1] and 0.0026 s⁻¹ in assay [4]. Moreover, the “kd (pH 5.8)/kd (pH 7.4)” value in assay [2] is 5.56.

B4: humanized PM1 antibody (wild type, WT) (antibody, human IgG1, kappa, V domains shown)
VH: QVQLQESGPGLVRPSQTLSLTCTVSGYSITSDHAWSWVRQPPGRGLEWIGYISYSGITTYNPSLKSRVTMLRDTSKNQFSLRLSSVTAADTAVYYCARSLARTTAMDYWGQGSLVTVSS
VL: DIQMTQSPSSLSASVGDRVTITCRASQDISSYLNWYQQKPGKAPKLLIYYTSRLHSGVPSRFSGSGSGTDFTFTISSLQPEDIATYYCQQGNTLPYTFGQGTKVEIKR
notes: IgG1; also called WT-IgG1; wild type humanized anti-IL-6 receptor antibody
B4: the koff in assay [1] and in assay [4] was 0.00025 s⁻¹ throughout. The “kd (pH 5.8)/kd (pH 7.4)” value in assay [2] was determined as 1. In assay [3], the “kd ratio pH 5.8/pH 7.4” value was 1.5.
